Assay results published in article PMC12081870 (Communications Biology, 2025).

Test: 15N NMR relaxation (T1, T2, NOE) of Sla1 SH3#1&2
Assay type: physicochemical, Saccharomyces cerevisiae
Set-up: Time Constant (T2) / T1 / T2: unit not given here
Conditions: for R1/s: 15N relaxation rate; for NOE / T1 / T2: 15N relaxation; for Time Constant (T2): fit A exp(-Bx), 11 peaks
Text: Fig. 2 A structural analysis of Sla1 SH3 domains 1 and 2. A The predicted interface between the first two SH3 domains of Sla1 as modelled using Alphafold. SH3#1 is shown in light green and SH3#2 is shown in cyan. Residues predicted to form hydrogen bonds using the Pymol search function are shown as sticks and labelled with their respective residue numbers. Dashed black lines indicate interactions. The red line in the structure indicates residues 67–70 in the hinge between the SH3 domains; the magenta loop indicates residues 52–54. B Assignment of the ^1H ^15N HSQC spectrum of Sla1 SH3 domains 1 and 2. C^15N relaxation data for Sla1 SH3#1&2. The linker between domains is approximately residues 67–70 (shown with red line under the trace and in A), and the mobile region 52-54 is part of a loop (shown with magenta line below the trace and in A). The correlation time of 8.5 ns (derived from the trimmed ^15N T1/T2 ratio), matches that calculated for a rigid two-domain structure rather than two independent domains (8.8 and 4.5 ns, respectively).
To investigate further, we purified ^15N, ^13C labelled Sla1 SH3#1&2 and analysed using NMR. A full assignment was obtained (Fig. 2B) which confirmed the Alphafold structure. An important aspect when considering the function of tandem domains is the level of rigidity or flexibility between the domains. […] NMR was used to determine relaxation parameters (^15N R1, R2 and NOE) of ^15N-labelled SH3#1-2 (Fig. 2B). […] The structural unity of the two-domain structure explains why attempts to study SH3#2 alone were unsuccessful.
Experiments were carried out on Bruker DRX-600 and DRX-800 spectrometers fitted with cryoprobes. SH3 domains 1 and 2 were assigned using a standard set of HNCA/HN(CO)CA, HNCO/HN(CA)CO and CBCAHN/CBCA(CO)HN 3D spectra. The assignment has been deposited at BioMagResBank, with code 52650. SH3 domain-3 was assigned by comparison to data provided by Prof Ishwar Radhakrishnan (Northwestern University) for the same domain although with different residues at both ends. Titrations were conducted with three peptides (GenScript Biotech, UK) comprising the three PP motifs (Fig. 3A): p1 […] (residues 318–339); p2 […] (residues 330–361); and p3 […] (residues 375–397). Peptide solutions were prepared as concentrated stock solutions in the same buffer at the same pH and added stepwise to protein solutions. Shift changes were analysed by picking peaks in Felix (Felix NMR Inc, San Diego, CA), which were downloaded to text files and for determining Kd were analysed using Levenberg-Marquardt least squares fitting to the standard quadratic equation[63]. Analysis of the ^15N relaxation data was carried using CCPN Analysis[64].

[1] = Average over the listed residues

B1: Sla1 SH3#1-2: SH3#1-2 (aa 5-131), tandem domains; sequence in b253 (protein)
chain: LGIYRAVYAYEPQTPEELAIQEDDLLYLLQKSDIDDWWTVKKRVIGSDSEEPVGLVPSTYIEEAPVLKKVRAIYDYEQVQNADEELTFHENDVFDVFDDKDADWLLVKSTVSNEFGFIPGNYVEPEN
modifications: 15N-labelled (NMR only); left off: GST, end not stated, cleaved
- R1/s (Res No 120): 1.466 s⁻¹
- R1/s (Res No 121): 1.493 s⁻¹
- R1/s (Res No 122): 1.379 s⁻¹
- R1/s (Res No 124): 1.37 s⁻¹
- R1/s (Res No 125): 1.488 s⁻¹
- R1/s (Res No 126): 1.238 s⁻¹
- R1/s (Res No 127): 1.493 s⁻¹
- R1/s (Res No 128): 1.443 s⁻¹
- R1/s (Res No 130): 1.206 s⁻¹
- R1/s (Res No 131): 1.364 s⁻¹
- NOE (Res No 120): 0.82
- T1 (Res No 120): 682.123
- T2 (Res No 120): 81.3349
- NOE (Res No 121): 0.78
- T1 (Res No 121): 669.609
- T2 (Res No 121): 97.0012
- NOE (Res No 122): 0.83
- T1 (Res No 122): 725.391
- T2 (Res No 122): 86.8543
- NOE (Res No 124): 0.77
- T1 (Res No 124): 730.172
- T2 (Res No 124): 96.3447
- NOE (Res No 125): 0.80
- T1 (Res No 125): 671.872
- T2 (Res No 125): 93.7171
- NOE (Res No 126): 0.79
- T1 (Res No 126): 807.954
- T2 (Res No 126): 78.1493
- NOE (Res No 127): 0.85
- T1 (Res No 127): 669.869
- T2 (Res No 127): 96.0414
- NOE (Res No 128): 0.81
- T1 (Res No 128): 693.218
- T2 (Res No 128): 98.2071
- NOE (Res No 130): 0.63
- T1 (Res No 130): 829.235
- T2 (Res No 130): 96.7653
- NOE (Res No 131): 0.25
- T1 (Res No 131): 733.153
- T2 (Res No 131): 129.47
- T1, average [1]: 736.968 ms
- T1/T2, average [1]: 7.904
- T2, average (Average over the listed residues, unit of column T2 Error not given): 95.1164 ms
- tm (If S2 ~ 0.9, from T1/T2): ~8.5 ns
- correlation time (derived from trimmed 15N T1/T2 ratio): 8.5 ns
- Time Constant (T2) (residue 2, 2LeuH/2LeuN): 74.2339
- Time Constant (T2) (residue 3, 3GlyH/3GlyN): 77.6134
- Time Constant (T2) (residue 4, 4SerH/4SerN): 87.959
- Time Constant (T2) (residue 5, 5LeuH/5LeuN): 78.1323
- Time Constant (T2) (residue 6, 6GlyH/6GlyN): 92.4802
- Time Constant (T2) (residue 7, 7IleH/7IleN): 92.3591
- Time Constant (T2) (residue 8, 8TyrH/8TyrN): 80.6702
- Time Constant (T2) (residue 9, 9ArgH/9ArgN): 95.265
- Time Constant (T2) (residue 10, 10AlaH/10AlaN): 80.3318
- Time Constant (T2) (residue 11, 11ValH/11ValN): 83.3796
- Time Constant (T2) (residue 12, 12TyrH/12TyrN): 98.6102
- Time Constant (T2) (residue 13, 13AlaH/13AlaN): 103.591
- Time Constant (T2) (residue 14, 14TyrH/14TyrN): 86.8853
- Time Constant (T2) (residue 15, 15GluH/15GluN): 80.7454
- Time Constant (T2) (residue 17, 17GlnH/17GlnN): 97.1227
- Time Constant (T2) (residue 18, 18ThrH/18ThrN): 94.4167
- Time Constant (T2) (residue 20, 20GluH/20GluN): 89.6372
- Time Constant (T2) (residue 21, 21GluH/21GluN): 88.1386
- Time Constant (T2) (residue 22, 22LeuH/22LeuN): 101.792
- Time Constant (T2) (residue 23, 23AlaH/23AlaN): 109.32
- Time Constant (T2) (residue 24, 24IleH/24IleN): 84.8173
- Time Constant (T2) (residue 25, 25GlnH/25GlnN): 91.5466
- Time Constant (T2) (residue 26, 26GluH/26GluN): 91.8855
- Time Constant (T2) (residue 27, 27AspH/27AspN): 90.7749
- Time Constant (T2) (residue 28, 28AspH/28AspN): 79.1318
- Time Constant (T2) (residue 29, 29LeuH/29LeuN): 102.528
- Time Constant (T2) (residue 30, 30LeuH/30LeuN): 94.1276
- Time Constant (T2) (residue 31, 31TyrH/31TyrN): 100.15
- Time Constant (T2) (residue 32, 32LeuH/32LeuN): 86.762
- Time Constant (T2) (residue 33, 33LeuH/33LeuN): 75.7339
- Time Constant (T2) (residue 34, 34GlnH/34GlnN): 87.3929
- Time Constant (T2) (residue 35, 35LysH/35LysN): 101.82
- Time Constant (T2) (residue 36, 36SerH/36SerN): 153.776
- Time Constant (T2) (residue 37, 37AspH/37AspN): 90.5854
- Time Constant (T2) (residue 38, 38IleH/38IleN): 99.0603
